Measured values taken from paper PMC3093405, “A Motif Unique to the Human Dead-Box Protein DDX3 Is Important for Nucleic Acid Binding, ATP Hydrolysis, RNA/DNA Unwinding and HIV-1 Replication” (PLoS ONE, 2011).

Experiments:
[1] = molecular target: DDX3wt (Homo sapiens) (UniProt O00571); test: filter binding; details: no ATP hydrolysis; 3 mM Mg2+; 50 µg/ml salmon sperm DNA; EMSA: on ice, protein buffer 25 mM Tris-HCl pH 7.5, 0.5 mM DTT, 20% glycerol, 100 mM NaCl plus 5x binding buffer (10% glycerol, 5 mM MgCl2, 2.5 mM EDTA pH 8 …)
Chain of DDX3wt (Homo sapiens) (O00571 whole entry): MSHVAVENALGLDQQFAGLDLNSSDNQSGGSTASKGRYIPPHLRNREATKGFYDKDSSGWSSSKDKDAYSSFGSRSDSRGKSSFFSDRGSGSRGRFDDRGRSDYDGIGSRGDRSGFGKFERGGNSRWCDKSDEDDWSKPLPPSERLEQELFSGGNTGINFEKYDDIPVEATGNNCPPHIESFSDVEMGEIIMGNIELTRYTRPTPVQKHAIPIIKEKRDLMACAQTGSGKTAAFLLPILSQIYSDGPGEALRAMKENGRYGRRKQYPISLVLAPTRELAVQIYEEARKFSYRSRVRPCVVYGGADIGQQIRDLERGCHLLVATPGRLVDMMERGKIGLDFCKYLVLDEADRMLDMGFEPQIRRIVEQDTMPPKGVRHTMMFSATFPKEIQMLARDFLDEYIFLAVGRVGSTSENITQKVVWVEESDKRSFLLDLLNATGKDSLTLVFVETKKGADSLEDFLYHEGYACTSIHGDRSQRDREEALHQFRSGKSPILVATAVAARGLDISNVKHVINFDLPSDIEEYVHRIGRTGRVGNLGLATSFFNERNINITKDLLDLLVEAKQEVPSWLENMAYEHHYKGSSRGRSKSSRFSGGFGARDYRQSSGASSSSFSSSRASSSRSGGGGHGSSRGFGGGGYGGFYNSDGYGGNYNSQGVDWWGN

[2] = molecular target: DDX3ΔINS del250-259 (Homo sapiens) (UniProt O00571); test: filter binding; details: no ATP hydrolysis; 3 mM Mg2+; 50 µg/ml salmon sperm DNA; EMSA: on ice, protein buffer 25 mM Tris-HCl pH 7.5, 0.5 mM DTT, 20% glycerol, 100 mM NaCl plus 5x binding buffer (10% glycerol, 5 mM MgCl2, 2.5 mM EDTA pH 8 …)
Chain of DDX3ΔINS del250-259 (Homo sapiens) (O00571 other isoform, or with tags, fused parts or gaps mutant): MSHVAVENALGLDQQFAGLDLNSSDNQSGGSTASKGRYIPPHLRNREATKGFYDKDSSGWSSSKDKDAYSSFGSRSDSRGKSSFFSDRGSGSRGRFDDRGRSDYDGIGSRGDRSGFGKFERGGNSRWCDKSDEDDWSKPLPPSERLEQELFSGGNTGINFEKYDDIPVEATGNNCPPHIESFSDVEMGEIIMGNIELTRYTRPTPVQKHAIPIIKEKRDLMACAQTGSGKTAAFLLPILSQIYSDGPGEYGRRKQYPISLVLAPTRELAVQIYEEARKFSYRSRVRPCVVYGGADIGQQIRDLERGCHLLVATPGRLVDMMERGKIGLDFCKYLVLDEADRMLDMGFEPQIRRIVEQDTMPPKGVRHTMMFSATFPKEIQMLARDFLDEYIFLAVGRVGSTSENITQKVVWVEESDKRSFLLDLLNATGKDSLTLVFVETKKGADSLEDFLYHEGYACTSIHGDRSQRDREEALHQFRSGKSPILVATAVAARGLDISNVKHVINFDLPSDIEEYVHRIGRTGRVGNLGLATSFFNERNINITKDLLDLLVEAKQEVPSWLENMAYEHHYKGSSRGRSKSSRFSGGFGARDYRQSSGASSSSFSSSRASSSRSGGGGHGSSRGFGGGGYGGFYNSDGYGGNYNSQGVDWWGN

18/36mer dsDNA
binding signal (fold (reference affinity)) [1]: 1 | binding signal (fold reduced affinity vs DDX3wt) [2]: 2.1
